± gives the uncertainty stated by the source.
B1: Tumor protein p73, residues 487 to 549; numbered along this chain, O15350 (parent)
chain: YHADPSLVSFLTGLGCPNCIEYFTSQGLQSIYHLQNLTIEDLGALKIPEQYRMTIWRGLQDLK

Variants of: B1
Test: abundance fitness (aPCA) (normalised: wild type 0, dead -1); higher = more abundant; growth selection in yeast, the domain comes from the species named
Conditions: Homo sapiens

Variant	abundance fitness
YHADPSLVSFLTGLGCPNCIEYFTSQGLQSPYHLQNLTIEDLGALKIPEQYRMTIWRGLQDLK [I31P]	-0.048 ± 0.052
YHADPSLVSFLTGLGCPNCIEYFTSQGLQSQYHLQNLTIEDLGALKIPEQYRMTIWRGLQDLK [I31Q]	0.026 ± 0.052
YHADPSLVSFLTGLGCPNCIEYFTSQGLQSRYHLQNLTIEDLGALKIPEQYRMTIWRGLQDLK [I31R]	-0.057 ± 0.033
YHADPSLVSFLTGLGCPNCIEYFTSQGLQSTYHLQNLTIEDLGALKIPEQYRMTIWRGLQDLK [I31T]	-0.005 ± 0.05
YHADPSLVSFLTGLGCPNCIEYFTSQGLQSVYHLQNLTIEDLGALKIPEQYRMTIWRGLQDLK [I31V]	0.042 ± 0.036
YHADPSLVSFLTGLGCPNCIEYFTSQGLQSWYHLQNLTIEDLGALKIPEQYRMTIWRGLQDLK [I31W]	-0.025 ± 0.038
YHADPSLVSFLTGLGCPNCIEYFTSQGLQSYYHLQNLTIEDLGALKIPEQYRMTIWRGLQDLK [I31Y]	-0.133 ± 0.064
YHADPSLVSFLTGLGCPNCIEYFTSQGLQSIAHLQNLTIEDLGALKIPEQYRMTIWRGLQDLK [Y32A]	0.012 ± 0.053
YHADPSLVSFLTGLGCPNCIEYFTSQGLQSICHLQNLTIEDLGALKIPEQYRMTIWRGLQDLK [Y32C]	0.112 ± 0.054
YHADPSLVSFLTGLGCPNCIEYFTSQGLQSIDHLQNLTIEDLGALKIPEQYRMTIWRGLQDLK [Y32D]	0.03 ± 0.071
YHADPSLVSFLTGLGCPNCIEYFTSQGLQSIEHLQNLTIEDLGALKIPEQYRMTIWRGLQDLK [Y32E]	0.095 ± 0.053
YHADPSLVSFLTGLGCPNCIEYFTSQGLQSIFHLQNLTIEDLGALKIPEQYRMTIWRGLQDLK [Y32F]	0.069 ± 0.061
YHADPSLVSFLTGLGCPNCIEYFTSQGLQSIGHLQNLTIEDLGALKIPEQYRMTIWRGLQDLK [Y32G]	0.104 ± 0.027
YHADPSLVSFLTGLGCPNCIEYFTSQGLQSIIHLQNLTIEDLGALKIPEQYRMTIWRGLQDLK [Y32I]	0.097 ± 0.089
YHADPSLVSFLTGLGCPNCIEYFTSQGLQSIKHLQNLTIEDLGALKIPEQYRMTIWRGLQDLK [Y32K]	0.137 ± 0.1
YHADPSLVSFLTGLGCPNCIEYFTSQGLQSILHLQNLTIEDLGALKIPEQYRMTIWRGLQDLK [Y32L]	0.105 ± 0.032
YHADPSLVSFLTGLGCPNCIEYFTSQGLQSIMHLQNLTIEDLGALKIPEQYRMTIWRGLQDLK [Y32M]	-0.068 ± 0.064
YHADPSLVSFLTGLGCPNCIEYFTSQGLQSIPHLQNLTIEDLGALKIPEQYRMTIWRGLQDLK [Y32P]	-0.04 ± 0.07
YHADPSLVSFLTGLGCPNCIEYFTSQGLQSIRHLQNLTIEDLGALKIPEQYRMTIWRGLQDLK [Y32R]	0.071 ± 0.03
YHADPSLVSFLTGLGCPNCIEYFTSQGLQSISHLQNLTIEDLGALKIPEQYRMTIWRGLQDLK [Y32S]	0.113 ± 0.032
YHADPSLVSFLTGLGCPNCIEYFTSQGLQSITHLQNLTIEDLGALKIPEQYRMTIWRGLQDLK [Y32T]	0.014 ± 0.059
YHADPSLVSFLTGLGCPNCIEYFTSQGLQSIVHLQNLTIEDLGALKIPEQYRMTIWRGLQDLK [Y32V]	0.143 ± 0.039

Variant	abundance fitness
YHADPSLVSFLTGLGCPNCIEYFTSQGLQSIWHLQNLTIEDLGALKIPEQYRMTIWRGLQDLK [Y32W]	-0.001 ± 0.043
YHADPSLVSFLTGLGCPNCIEYFTSQGLQSIYALQNLTIEDLGALKIPEQYRMTIWRGLQDLK [H33A]	-0.014 ± 0.035
YHADPSLVSFLTGLGCPNCIEYFTSQGLQSIYCLQNLTIEDLGALKIPEQYRMTIWRGLQDLK [H33C]	-0.051 ± 0.061
YHADPSLVSFLTGLGCPNCIEYFTSQGLQSIYDLQNLTIEDLGALKIPEQYRMTIWRGLQDLK [H33D]	-0.017 ± 0.1
YHADPSLVSFLTGLGCPNCIEYFTSQGLQSIYELQNLTIEDLGALKIPEQYRMTIWRGLQDLK [H33E]	0.003 ± 0.041
YHADPSLVSFLTGLGCPNCIEYFTSQGLQSIYFLQNLTIEDLGALKIPEQYRMTIWRGLQDLK [H33F]	-0.344 ± 0.099
YHADPSLVSFLTGLGCPNCIEYFTSQGLQSIYGLQNLTIEDLGALKIPEQYRMTIWRGLQDLK [H33G]	-0.038 ± 0.033
YHADPSLVSFLTGLGCPNCIEYFTSQGLQSIYILQNLTIEDLGALKIPEQYRMTIWRGLQDLK [H33I]	-0.216 ± 0.072
YHADPSLVSFLTGLGCPNCIEYFTSQGLQSIYKLQNLTIEDLGALKIPEQYRMTIWRGLQDLK [H33K]	0.112 ± 0.041
YHADPSLVSFLTGLGCPNCIEYFTSQGLQSIYLLQNLTIEDLGALKIPEQYRMTIWRGLQDLK [H33L]	-0.142 ± 0.037
YHADPSLVSFLTGLGCPNCIEYFTSQGLQSIYMLQNLTIEDLGALKIPEQYRMTIWRGLQDLK [H33M]	-0.088 ± 0.052
YHADPSLVSFLTGLGCPNCIEYFTSQGLQSIYNLQNLTIEDLGALKIPEQYRMTIWRGLQDLK [H33N]	-0.027 ± 0.086
YHADPSLVSFLTGLGCPNCIEYFTSQGLQSIYPLQNLTIEDLGALKIPEQYRMTIWRGLQDLK [H33P]	-0.127 ± 0.037
YHADPSLVSFLTGLGCPNCIEYFTSQGLQSIYQLQNLTIEDLGALKIPEQYRMTIWRGLQDLK [H33Q]	0.069 ± 0.043
YHADPSLVSFLTGLGCPNCIEYFTSQGLQSIYRLQNLTIEDLGALKIPEQYRMTIWRGLQDLK [H33R]	-0.055 ± 0.031
YHADPSLVSFLTGLGCPNCIEYFTSQGLQSIYTLQNLTIEDLGALKIPEQYRMTIWRGLQDLK [H33T]	0.01 ± 0.048
YHADPSLVSFLTGLGCPNCIEYFTSQGLQSIYVLQNLTIEDLGALKIPEQYRMTIWRGLQDLK [H33V]	-0.059 ± 0.034
YHADPSLVSFLTGLGCPNCIEYFTSQGLQSIYWLQNLTIEDLGALKIPEQYRMTIWRGLQDLK [H33W]	-0.566 ± 0.07
YHADPSLVSFLTGLGCPNCIEYFTSQGLQSIYYLQNLTIEDLGALKIPEQYRMTIWRGLQDLK [H33Y]	-0.112 ± 0.058
YHADPSLVSFLTGLGCPNCIEYFTSQGLQSIYHAQNLTIEDLGALKIPEQYRMTIWRGLQDLK [L34A]	0.048 ± 0.039
YHADPSLVSFLTGLGCPNCIEYFTSQGLQSIYHCQNLTIEDLGALKIPEQYRMTIWRGLQDLK [L34C]	-0.049 ± 0.068

From the Human Domainome abundance scans (Beltran et al. 2025)
